Experimental findings from US20150203577A1 (Chugai, published 2015) are described below.

Positions count from the first letter of the chain named. In names and notes the source's numbering stands. Where two headings read alike, the source gives them in different places.

One assay addresses T1, mouse FcγRIII (mouse, UniProt P08508 31-215).
T1 construct: also called mFcγRIII; mFcgRIII
T1 chain: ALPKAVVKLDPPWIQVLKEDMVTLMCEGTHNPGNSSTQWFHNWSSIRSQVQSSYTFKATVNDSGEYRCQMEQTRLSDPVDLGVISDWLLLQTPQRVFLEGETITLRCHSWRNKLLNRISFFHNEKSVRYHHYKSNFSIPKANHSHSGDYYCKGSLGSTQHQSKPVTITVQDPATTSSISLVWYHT
As to the kind of experiment: SPR Biacore T200. An excerpt:
(§1) The antibody H chain variable region used was the variable region H237 (SEQ ID NO: 1) of the H chain VH3-IgG1 of the anti-IL-6 receptor antibody Fv4-IgG1 described in WO2009/125825. The antibody L chain commonly used was the L chain MRAL-k0 (SEQ ID NO: 2) of the anti-IL-6 receptor antibody tocilizumab. The aforementioned 11 variants were used as templates to introduce the alteration. These variants were expressed and purified by the method of Reference Example 1 and evaluated for their binding to mFcγRII and mFcγRIII by the method of Reference Example 2 using Biacore T200.
Each altered antibody was analyzed for its interaction with each Fcγ receptor prepared above using Biacore T100 (GE Healthcare Japan Corp.), Biacore T200 (GE Healthcare Japan Corp.), Biacore A100, or Biacore 4000. The running buffer used was HBS-EP+ (GE Healthcare Japan Corp.). The assay temperature was set to 25° C. […]
In order to calculate the KD value of each altered antibody for FcγR, kinetic analysis was conducted according to the following method: first, the antibody of interest was captured onto any of these chips and allowed to interact with mFcγR diluted with a running buffer. […] From these values, the dissociation constant KD (mol/L) was calculated.

In assay [1] the target is T2, mouse FcγRII (mouse, UniProt P08101 30-210).
T2 construct: also called mFcγRII; mFcgRII
T2 sequence: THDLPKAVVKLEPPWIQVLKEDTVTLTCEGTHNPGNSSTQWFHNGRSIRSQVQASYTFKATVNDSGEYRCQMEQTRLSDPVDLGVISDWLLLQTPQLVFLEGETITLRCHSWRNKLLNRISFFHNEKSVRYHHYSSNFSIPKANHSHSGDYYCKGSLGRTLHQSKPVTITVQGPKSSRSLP
As to the kind of experiment: told of the L104-mk1 form; SPR was run on the MRAL-k0 form.

Assay [2] concerns the target T3, mouse FcγRIII extracellular domain, C-terminal His tag (mouse, UniProt P08508 31-215).
T3 construct: Whole entry named; also called mFcγRIII; mFcgRIII
T3 chain: T1 chain
Kind of assay: SPR (Biacore T200). An excerpt: (§2) The antibody H chain variable region used was the variable region H237 (SEQ ID NO: 1) of the H chain VH3-IgG1 of the anti-IL-6 receptor antibody Fv4-IgG1 described in WO2009/125825. The antibody L chain commonly used was the L chain MRAL-k0 (SEQ ID NO: 2) of the anti-IL-6 receptor antibody tocilizumab. […] These variants were expressed and purified by the method of Reference Example 1 and evaluated for their binding to mFcγRII and mFcγRIII by the method of Reference Example 2 using Biacore T200.
(§3) Each altered antibody was analyzed for its interaction with each Fcγ receptor prepared above using Biacore T100 (GE Healthcare Japan Corp.), Biacore T200 (GE Healthcare Japan Corp.), Biacore A100, or Biacore 4000. The running buffer used was HBS-EP+ (GE Healthcare Japan Corp.). The assay temperature was set to 25° C. The sensor chips used were chips prepared by immobilizing Protein L (ACTIGEN or BioVision) onto Series S Sensor Chip CM5 (GE Healthcare Japan Corp.) or Series S Sensor Chip CM4 (GE Healthcare Japan Corp.) by the amine coupling method.

Assay [3] deals with T4, mouse FcγRII extracellular domain, C-terminal His tag (mouse, UniProt P08101 30-210).
T4 construct: Whole entry named; also called mFcγRII; mFcgRII
T4 sequence: T2 sequence
Kind of assay: SPR (Biacore T200); KD of H237-mIgG1/MRAL-k0 / KD of variant.

Assay [4] deals with T2, mouse FcγRII. Kind of assay: told of the L104-mk1 form; SPR (Table 28) was run on the MRAL-k0 form.
For assay [5], the target named is T3, mouse FcγRIII extracellular domain, …. As to the kind of experiment: SPR (Biacore T200).
Assay [6] addresses T4, mouse FcγRII extracellular domain, …. Kind of assay: SPR (Biacore T200); KD of H237-mIgG1/MRAL-k0 / KD of variant. The source holds these as a separate data set.
The target is the same in assay [7]. As to the kind of experiment: SPR (Biacore T200).
Text: as §2, §3

Assay [8] concerns the target T3, mouse FcγRIII extracellular domain, …. Kind of assay: SPR (Biacore T200); KD of H237-mIgG1/MRAL-k0 / KD of variant.
For assay [9] the target is unchanged. Kind of assay: SPR (Biacore T200).
Text: as §1, with “7” for “11”, “substitute the amino acids at the alteration sites by the amino acids before” for “introduce”
as §3

In assay [10] the target is T4, mouse FcγRII extracellular domain, …. As to the kind of experiment: SPR (Biacore T200); KD of H237-mIgG1/MRAL-k0 / KD of variant.
Text: as §1, with “7” for “11”, “substitute the amino acids at the alteration sites by the amino acids before” for “introduce”
as §3
This is another data set of the same source.

The target of assay [11] is T5, mouse FcγRII extracellular domain, C-terminally His-tagged (mouse, UniProt P08101 30-210).
T5 construct: the whole entry is named; also called mFcγRII; mFcgRII
T5 sequence: T2 sequence
Kind of assay: SPR Biacore T200, KD ratio. The method, then:
(§4) As for alterations, “X000Z” represents the substitution of amino acid X at EU numbering position 000 by amino acid Z. In this context, X and Z represent the one-letter codes of the amino acid residues.
as §3
(§5) In order to calculate the KD value of each altered antibody for FcγR, kinetic analysis was conducted according to the following method: first, the antibody of interest was captured onto any of these chips and allowed to interact with mFcγR diluted with a running buffer. For the obtained sensorgram, the assay results were globally fit into the 1:1 Langmuir binding model using Biacore Evaluation Software to calculate an association rate constant ka (L/mol/s) and a dissociation rate constant kd (1/s). From these values, the dissociation constant KD (mol/L) was calculated.

Assay [12] concerns the target T6, mouse FcγRIII extracellular domain, C-terminally His-tagged (mouse, UniProt P08508 31-215).
T6 construct: the whole entry is named; also called mFcγRIII; mFcgRIII
T6 chain: T1 chain
Kind of assay: SPR Biacore T200, KD ratio. The procedure: as §4, §3, §5

The target in assay [13] is T5, mouse FcγRII extracellular domain, …. Kind of assay: SPR Biacore T200, antibody captured on Protein L. The procedure: as §4, §3, §5
The target in assay [14] is T6, mouse FcγRIII extracellular domain, …. As to the kind of experiment: SPR Biacore T200, antibody captured on Protein L. The method, then: as §4, §3, §5

B1: H237-MB697/MRAL-k0 (antibody, mouse IgG1, kappa)
heavy: QVQLQESGPGLVKPSETLSLTCAVSGHSISHDHAWSWVRQPPGEGLEWIGFISYSGITNYNPSLQGRVTISRDNSKNTLYLQMNSLRAEDTAVYYCARSLARTTAMDYWGEGTLVTVSSAKTTPPSVYPLAPGSAAQTNSMVTLGCLVKGYFPEPVTVTWNSGSLSSGVHTFPAVLQSDLYTLSSSVTVPSSTWPSETVTCNVAHPASSTKVDKKIVPRDCGCKPCICEPPEVEFVFIFPPKPKDVLTITLTPKVTCVVVDISKDDPEVQFSWFVDDVEVHTAQTQPREEQFNSTFRSVSELPIMHQDWLNGKEFKCRVNSAAFPAPIEKTISKTKGRPKAPQVYTIPPPKEQMAKDKVSLTCMITDFFPEDITVEWQWNGQPAENYKNTQPIMDTDGSYFVYSKLNVQKSNWEAGNTFTCSVLHEGLHNHHTEKSLSHSPGK
light: not shown
notes: copies: 2 + 2
Take B1: the binding result with mouse FcγRIII is listed as “no binding”.

B2: H237-MB367/L104-mk1 (antibody, mouse IgG1, kappa)
heavy: B1 heavy with P230A, P231N, F235D
light: DIQMTQSPSSLSASVGDSVTITCQASTDISSHLNWYQQKPGKAPELLIYYGSHLLSGVPSRFSGSGSGTDFTFTISSLEAEDAATYYCGQGNRLPYTFGQGTKVEIERADAAPTVSIFPPSSEQLTSGGASVVCFLNNFYPKDINVKWKIDGSERQNGVLNSWTDQDSKDSTYSMSSTLTLTKDEYERHNSYTCEATHKTSTSPIVKSFNRNEC
notes: the text speaks of it for this form; copies: 2 + 2
For the molecule B2, the binding result with mouse FcγRII [1] was “binds”.

B3: H237-MB610/MRAL-k0 (antibody, mouse IgG1, kappa)
heavy: B1 heavy with E229T, P230V, V233E, E234S, F235E, F237D
light: not shown
notes: copies: 2 + 2
In the case of B3, the binding result in assay [2] was “no binding”. Besides, the “relative mFcγRII-binding activity (mIgG1 = 1)” value in assay [3] was determined as 0.23 fold.

B4: H237-MB477/L104-mk1 (antibody, mouse IgG1, kappa)
heavy: B1 heavy with P231N, F235D, S263A
light: B2 light
notes: the text gives the rounded value for this form; copies: 2 + 2
For B4, the “relative mFcγRII-binding activity (H237-mIgG1/L104-mk1 = 1)” value with mouse FcγRII [4] was roughly 200 fold.

B5: H237-MB606/MRAL-k0 (antibody, mouse IgG1, kappa)
heavy: B1 heavy with P230V, E234D, F235S, S263M
light: not shown
notes: copies: 2 + 2
For B5, the binding result in assay [2] is given as “no binding”. Further, the “relative mFcγRII-binding activity (mIgG1 = 1)” value in [3] was 0.05 fold.

B6: H237-MB880/MRAL-k0 (antibody, mouse IgG1, kappa)
heavy: B1 heavy with P230V, P231A, V233E, F235L
light: not shown
notes: copies: 2 + 2
With B6, in assay [5], the binding result was “no binding”. Moreover, the “relative mFcγRII-binding activity (mIgG1 = 1)” value in [6] is 0.34 fold.

B7: H237-MB879/MRAL-k0 (antibody, mouse IgG1, kappa)
heavy: B1 heavy with E229T, P231N, V233E, F235L
light: not shown
notes: copies: 2 + 2
Take B7: the binding result in assay [5] was “no binding”. In addition, in assay [6], the “relative mFcγRII-binding activity (mIgG1 = 1)” value was found to be 0.3 fold.

B8: H237-MB675/MRAL-k0 (antibody)
heavy: B1 heavy with E229I, P231A, F235K
light: not shown
notes: copies: 2 + 2
With B8, in assay [7], the binding result was “no binding”. The “relative mFcγRIII-binding activity (mIgG1 = 1)” value in assay [8] was determined as 0.01 fold.

B9: H237-MB697/MRAL-k0 (antibody, mouse IgG1, kappa)
heavy: B1 heavy
light: not shown
notes: copies: 2 + 2
Consider B9, for which the binding result in [9] is “no binding”. Moreover, the “relative mFcγRII-binding activity (mIgG1 = 1)” value in assay [10] was 0.217 fold.

B10: H237-MB590/MRAL-k0 (antibody, mouse IgG1, kappa)
heavy: B1 heavy with E229T, P230V, E234D, F235S, S263M
light: not shown
notes: copies: 2 + 2
For the molecule B10, the binding result in assay [7] and in [2] was “no binding” each time.

B11: H237-mF46/MRAL-k0 (antibody, mouse IgG1, kappa)
heavy: B1 heavy with E229T, P230V, E234S, F235D, A323D
light: not shown
notes: S239D/A327D (EU) against H237-mIgG1; copies: 2 + 2
Consider B11, for which the “relative mFcγRII-binding activity (mIgG1 = 1)” value in assay [11] came to 158 fold. In addition, in assay [12], the “relative mFcγRIII-binding activity (mIgG1 = 1)” value stood at 44 fold. In addition, the equilibrium dissociation constant (Kd) is 1.33 nM in [13] and 6.4 nM in [14].

B12: H237-MB701/MRAL-k0 (antibody, mouse IgG1, kappa)
heavy: B1 heavy with P230V, V233E
light: not shown
notes: copies: 2 + 2
Turning to B12, the binding result with mouse FcγRIII was “no binding”.

B13: H237-MB677/MRAL-k0 (antibody)
heavy: B1 heavy with E229Q, P231N, F235K
light: not shown
notes: copies: 2 + 2
B13: in assay [7], the binding result is “no binding”. The “relative mFcγRIII-binding activity (mIgG1 = 1)” value in assay [8] stood at 0.03 fold.

B14: H237-MB881/MRAL-k0 (antibody, mouse IgG1, kappa)
heavy: B1 heavy with P230V, P231N, V233E, F235L
light: not shown
notes: copies: 2 + 2
For B14, the binding result in [5] is reported as “no binding”. Also, the “relative mFcγRII-binding activity (mIgG1 = 1)” value in [6] was 0.23 fold.

B15: H237-MB701/MRAL-k0 (antibody, mouse IgG1, kappa)
heavy: B1 heavy with P230V, V233E
light: not shown
notes: copies: 2 + 2
Take B15: in assay [9], the binding result was “no binding”. In addition, the “relative mFcγRII-binding activity (mIgG1 = 1)” value in assay [10] is 0.187 fold.

B16: H237-MB367/MRAL-k0 (antibody, mouse IgG1, kappa)
heavy: B1 heavy with P230A, P231N, F235D
light: not shown
notes: T230E/V231A/P232N/S238E/S239D (EU) against H237-mIgG1; copies: 2 + 2
As for B16, the “relative mFcγRII-binding activity (mIgG1 = 1)” value in assay [11] is 159 fold. For the same molecule, the “relative mFcγRIII-binding activity (mIgG1 = 1)” value in assay [12] is 6.2 fold. The values for the dissociation constant Kd in assay [13] and in [14] were 1.32 nM and 45.4 nM, respectively.

B17: H237-MB492/L104-mk1 (antibody, mouse IgG1, kappa)
heavy: B1 heavy with P231N, F235D, N320D
light: B2 light
notes: as for B4
Turning to B17, in the assay with mouse FcγRII [4], the “relative mFcγRII-binding activity (H237-mIgG1/L104-mk1 = 1)” value is roughly 620 fold.
